Results taken from patent US20200249231.

Legend:
[1] = target: T1, RYGKS (5-mer on peptide array)
T1 chain: RYGKS

Z-[GGGRQRQRGGGG] = target: T2, Z-[GGGRQRQRGGGG]
T2 chain: GGGRQRQRGGGG

[2] = target: T3, QRQRQ (5-mer on peptide array)
T3 chain: QRQRQ

Z-[GGGMLAQGSGGG] = target: T4, Z-[GGGMLAQGSGGG]
T4 chain: GGGMLAQGSGGG

[3] = target: T5, EYWLQ (5-mer on peptide array)
T5 chain: EYWLQ

[4] = target: T6, EWALQ (5-mer on peptide array)
T6 chain: EWALQ

[5] = target: T7, RYTQR (5-mer on peptide array)
T7 chain: RYTQR

[6] = target: T8, RWKFK (5-mer on peptide array)
T8 chain: RWKFK

[7] = target: T9, DYALQ (5-mer on peptide array)
T9 chain: DYALQ

[8] = target: T10, WYALQ (5-mer on peptide array)
T10 chain: WYALQ

[9] = target: T11, EWIAQ (5-mer on peptide array)
T11 chain: EWIAQ

Z-[GGGRYRSKGGGG] = target: T12, Z-[GGGRYRSKGGGG]
T12 chain: GGGRYRSKGGGG

[10] = target: T13, DWYLQ (5-mer on peptide array)
T13 chain: DWYLQ

Z-[GGGRYRQRGGGG] = target: T14, Z-[GGGRYRQRGGGG]
T14 chain: GGGRYRQRGGGG

[11] = target: T15, RFSQR (5-mer on peptide array)
T15 chain: RFSQR

[12] = target: T16, YRQSR (5-mer on peptide array)
T16 chain: YRQSR

[13] = target: T17, DWALQ (5-mer on peptide array)
T17 chain: DWALQ

[14] = target: T18, RYRSK (5-mer on peptide array)
T18 chain: RYRSK

Z-[GGGYKGRGGGGG] = target: T19, Z-[GGGYKGRGGGGG]
T19 chain: GGGYKGRGGGGG

Z-[GGGDYALQGGGG] = target: T20, Z-[GGGDYALQGGGG]
T20 chain: GGGDYALQGGGG

[15] = target: T21, QYRQR (5-mer on peptide array)
T21 chain: QYRQR

[16] = target: T22, YQRQR (5-mer on peptide array)
T22 chain: YQRQR

[17] = target: T23, AYRQR (5-mer on peptide array)
T23 chain: AYRQR

[18] = target: T24, EYFLQ (5-mer on peptide array)
T24 chain: EYFLQ

[19] = target: T25, NYRFK (5-mer on peptide array)
T25 chain: NYRFK

[20] = target: T26, QRQTR (5-mer on peptide array)
T26 chain: QRQTR

[21] = target: T27, YKSFK (5-mer on peptide array)
T27 chain: YKSFK

[22] = target: T28, Thermus thermophilus SlyD FKBP domain with grafted KalbTG Q-tag RYRQR, 8xHis
T28 chain: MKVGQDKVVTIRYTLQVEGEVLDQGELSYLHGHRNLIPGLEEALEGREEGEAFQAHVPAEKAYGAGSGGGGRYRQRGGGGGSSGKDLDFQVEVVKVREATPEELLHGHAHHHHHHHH

[23] = target: T29, YKYRQ (5-mer on peptide array)
T29 chain: YKYRQ

Z-[GGGRYESKGGGG] = target: T30, Z-[GGGRYESKGGGG]
T30 chain: GGGRYESKGGGG

B1: Kutzneria albida microbial transglutaminase, activated enzyme (KalbTGt3) (protein)
chain: APLAPPLAEDRSYRTWRVEDYVEAWERYHGREMTEDERENLARGCIGVTVVNLNREDLSNPPLNLSFGSLRTAEAVQAALNKIVDTHPSPAQYEAAVAKDPILKRLKNVVKALPSWIDSAKLKASIFSKRFYSWQNPDWSEERAHTTYRPDRETDQVDMSTYRYRARPGYVNFDYGWFDQDTNTWWHANHEEPRMVVYQSTLRHYSRPLQDFDEQVFTVAFAKKDGGGSGHHHHHHHH
Array signal (log2) [1]: 12.4 log2 | Reaction rate in solution (pmol/s), GLDH-coupled assay (Z-[GGGRQRQRGGGG]): 2.06 pmol/s | 5-mer peptide array, incorporation of biotinylated amine donor [2]: the top 22 glutamine-donor substrates identified on the 5-mer peptide array with KalbTG | Array signal (log2) [2]: 8.77 log2 | GLDH-coupled activity assay (Z-[GGGMLAQGSGGG]): KalbTG exhibited no activity with preferred S. mobaraensis MTG substrates DYALQ (SEQ ID NO: 22) and MLAQG (SEQ ID NO: 13) | Reaction rate in solution (pmol/s), GLDH-coupled assay (Z-[GGGMLAQGSGGG]): -0.11 pmol/s | 5-mer peptide array signal with KalbTG [3]: exhibited relatively lower signal on the KalbTG array | 5-mer peptide array signal with KalbTG [4]: exhibited relatively lower signal on the KalbTG array | 5-mer peptide array, incorporation of biotinylated amine donor [5]: the top 22 glutamine-donor substrates identified on the 5-mer peptide array with KalbTG | 5-mer peptide array, incorporation of biotinylated glutamine donor Z-APRYRQRAAGGG-PEG-biotin [6]: the top 17 lysine-donor substrates identified on the 5-mer peptide array with KalbTG | 5-mer peptide array signal with KalbTG [7]: exhibited relatively lower signal on the KalbTG array | Array signal (log2) [7]: 7.22 log2 | 5-mer peptide array signal with KalbTG [8]: exhibited relatively lower signal on the KalbTG array | 5-mer peptide array signal with KalbTG [9]: exhibited relatively lower signal on the KalbTG array | Reaction Rate in Solution (pmol s^-1), GLDH-coupled assay with 200 µM glutamine donor (Z-[GGGRYRSKGGGG]): 3.26 pmol/s | 5-mer peptide array signal with KalbTG [10]: exhibited relatively lower signal on the KalbTG array | Reaction rate in solution (pmol/s), GLDH-coupled assay (Z-[GGGRYRQRGGGG]): 3.6 pmol/s | 5-mer peptide array, incorporation of biotinylated amine donor [11]: the top 22 glutamine-donor substrates identified on the 5-mer peptide array with KalbTG | 5-mer peptide array, incorporation of biotinylated amine donor [12]: the top 22 glutamine-donor substrates identified on the 5-mer peptide array with KalbTG | 5-mer peptide array signal with KalbTG [13]: exhibited relatively lower signal on the KalbTG array | Array signal (log2) [14]: 12.4 log2 | Reaction Rate in Solution (pmol s^-1), GLDH-coupled assay with 200 µM glutamine donor (Z-[GGGYKGRGGGGG]): 3.01 pmol/s | GLDH-coupled activity assay (Z-[GGGDYALQGGGG]): KalbTG exhibited no activity with preferred S. mobaraensis MTG substrates DYALQ (SEQ ID NO: 22) and MLAQG (SEQ ID NO: 13) | Reaction rate in solution (pmol/s), GLDH-coupled assay (Z-[GGGDYALQGGGG]): -0.05 pmol/s | 5-mer peptide array, incorporation of biotinylated amine donor [15]: the top 22 glutamine-donor substrates identified on the 5-mer peptide array with KalbTG | Array signal (log2) [15]: 8.7 log2 | 5-mer peptide array, incorporation of biotinylated amine donor [16]: the top 22 glutamine-donor substrates identified on the 5-mer peptide array with KalbTG | 5-mer peptide array, incorporation of biotinylated amine donor [17]: the top 22 glutamine-donor substrates identified on the 5-mer peptide array with KalbTG | 5-mer peptide array signal with KalbTG [18]: exhibited relatively lower signal on the KalbTG array | 5-mer peptide array, incorporation of biotinylated glutamine donor Z-APRYRQRAAGGG-PEG-biotin [19]: the top 17 lysine-donor substrates identified on the 5-mer peptide array with KalbTG | 5-mer peptide array, incorporation of biotinylated amine donor [20]: the top 22 glutamine-donor substrates identified on the 5-mer peptide array with KalbTG | 5-mer peptide array, incorporation of biotinylated glutamine donor Z-APRYRQRAAGGG-PEG-biotin [21]: the top 17 lysine-donor substrates identified on the 5-mer peptide array with KalbTG | labeling yield with KalbTG K-tag-Cy3 (SDS-PAGE, in-gel fluorescence) [22]: approximately 70% yield of a labeled protein species after 15 minutes | 5-mer peptide array, incorporation of biotinylated amine donor [23]: the top 22 glutamine-donor substrates identified on the 5-mer peptide array with KalbTG | Array signal (log2) [23]: 8.7 log2 | Reaction Rate in Solution (pmol s^-1), GLDH-coupled assay with 200 µM glutamine donor (Z-[GGGRYESKGGGG]): 4.47 pmol/s
